Measured values taken from publication PMC5393055 (Genes & Development, 2017).

Target: T1, full-length GST-SUUR (Drosophila, UniProt Q9VTE2 1-962)
T1 sequence (looked up): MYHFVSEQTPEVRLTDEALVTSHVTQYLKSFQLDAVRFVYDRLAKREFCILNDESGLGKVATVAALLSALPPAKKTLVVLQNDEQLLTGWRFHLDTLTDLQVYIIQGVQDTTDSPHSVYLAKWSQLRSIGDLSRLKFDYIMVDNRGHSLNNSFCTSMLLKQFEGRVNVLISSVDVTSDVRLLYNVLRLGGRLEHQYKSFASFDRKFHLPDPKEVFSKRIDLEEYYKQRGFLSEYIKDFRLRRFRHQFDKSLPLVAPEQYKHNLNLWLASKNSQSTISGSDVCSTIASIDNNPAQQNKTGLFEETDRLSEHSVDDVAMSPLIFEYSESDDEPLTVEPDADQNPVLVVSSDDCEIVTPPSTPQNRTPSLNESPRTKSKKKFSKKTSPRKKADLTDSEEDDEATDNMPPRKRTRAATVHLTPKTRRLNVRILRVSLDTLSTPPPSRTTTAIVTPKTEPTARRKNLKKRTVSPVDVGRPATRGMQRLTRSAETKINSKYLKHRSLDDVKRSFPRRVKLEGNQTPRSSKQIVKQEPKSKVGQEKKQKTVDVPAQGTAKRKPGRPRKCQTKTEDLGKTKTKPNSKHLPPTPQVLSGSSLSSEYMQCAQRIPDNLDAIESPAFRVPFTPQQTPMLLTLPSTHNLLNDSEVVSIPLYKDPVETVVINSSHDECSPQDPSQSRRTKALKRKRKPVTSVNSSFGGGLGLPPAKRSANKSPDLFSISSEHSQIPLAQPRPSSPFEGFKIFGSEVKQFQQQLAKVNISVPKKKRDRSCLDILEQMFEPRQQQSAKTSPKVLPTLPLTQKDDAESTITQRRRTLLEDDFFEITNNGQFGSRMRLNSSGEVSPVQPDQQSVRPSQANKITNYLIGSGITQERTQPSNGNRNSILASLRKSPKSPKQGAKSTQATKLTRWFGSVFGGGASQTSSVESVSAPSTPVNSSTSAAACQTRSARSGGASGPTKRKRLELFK
Test: pull-down

binding result: binds
B1: recombinant untagged full-length H1 (natural protein, Drosophila, UniProt P02255 1-256, looked up)
chain: MSDSAVATSASPVAAPPATVEKKVVQKKASGSAGTKAKKASATPSHPPTQQMVDASIKNLKERGGSSLLAIKKYITATYKCDAQKLAPFIKKYLKSAVVNGKLIQTKGKGASGSFKLSASAKKEKDPKAKSKVLSAEKKVQSKKVASKKIGVSSKKTAVGAADKKPKAKKAVATKKTAENKKTEKAKAKDAKKTGIIKSKPAATKAKVTAAKPKAVVAKASKAKPAVSAKPKKTVKKASVSATAKKPKAKTTAAKK
